This note sets out measurements from patent US20180185450A1 (Sanofi, published 2018).

Numbered stars: 1 amine (or outer) side, 2 acyl side, 3 side chain; on linkers, the order of the positions; unused ones are H or OH. Square brackets hold non-standard residues; d marks the D form. Side chains are listed from the residue outwards. Ends that are not written are not given here. γGlu = O=C(O)[C@H](CCC(=O)[*:2])N[*:1]; x53 = not defined here; Aib = CC(C)(N)C(=O)O

The first test has as its target human GLP-1 receptor (human, UniProt P43220 24-463). Nature of the test: cell-based or functional assay.
Regarding HXQGTFTSDLSKQKDSRRAQDFIEWLKNGGPSSGAPPPS (dSer at 2; K(γE-x53) at 14; C-terminal NH(pyrrolidin)) [SEQ ID NO: 98], the “EC50 hGLP-1R (cAMP)” value came out at 9.6 pM.

Consider HXQGTFTSDLSKQKDSRRAQDFIEWLKNGGPSSGAPPPS (dSer at 2; K(γE-x53) at 14; C-terminal NH(CH2-CF3)) [SEQ ID NO: 103], for which the “EC50 hGLP-1R (cAMP)” value came out at 10.1 pM.

Turning to HXQGTFTSDLSKQKESXAAQDFIEWLKAGGPSSGAPPPS (dSer at 2; K(γE-x70) at 14; Aib at 17; C-terminal NH2) [SEQ ID NO: 11], the “EC50 hGLP-1R (cAMP)” value was determined as 3.6 pM.

For HXQGTFTSDLSKQKDSRRAQDFIEWLKNGGPSSGAPPPS (dSer at 2; K(γE-x53) at 14; C-terminal NH(benzyl)) [SEQ ID NO: 99], the “EC50 hGLP-1R (cAMP)” value came out at 15.9 pM.

In the case of HXQGTFTSDLSKQKDSRRAQDFIEWLKNGGPSSGAPPPS (dSer at 2; K(γE-x53) at 14; C-terminal NH[(CH2)15-CH3]) [SEQ ID NO: 106], the “EC50 hGLP-1R (cAMP)” value stood at 210 pM.

With HXQGTFTSDLSKQKDSRRAQDFIEWLKNXGPSSGAPPPS (dSer at 2; K(γE-x53) at 14; dAla at 29; C-terminal NH2) [SEQ ID NO: 94], the “EC50 hGLP-1R (cAMP)” value came to 5.2 pM.

Regarding HXQGTFTSDLSKQKDSRRAQDFIEWLKNGGPSSGAPPPS (dSer at 2; K(γE-x53) at 14; C-terminal NH(tert.butyl)) [SEQ ID NO: 100], the “EC50 hGLP-1R (cAMP)” value worked out at 13.5 pM.

As to HXQGTFTSDLSKQKDSRRAQDFIEWLKNGGPSSGAPPPS (dSer at 2; K(γE-x53) at 14; C-terminal NH[(CH2)14-CH3]) [SEQ ID NO: 108], the “EC50 hGLP-1R (cAMP)” value was 197 pM.

Turning to HXQGTFTSDLSKQKESRRAQDFIEWLKNTGPSSGAPPPS (dSer at 2; K(γE-x53) at 14; C-terminal NH2) [SEQ ID NO: 96], the “EC50 hGLP-1R (cAMP)” value amounted to 74.3 pM.

On to HXQGTFTSDLSKQKDSRRAQDFIEWLKNGGPSSGAPPPS (dSer at 2; K(γE-x53) at 14; C-terminal NH[(CH2-CH2-O)4-CH2-CH2-COOH]) [SEQ ID NO: 104], for which the “EC50 hGLP-1R (cAMP)” value is 6.5 pM.

With HXQGTFTSDLSKQKESRRAQDFIEWLKNAGPSSGAPPPS (dSer at 2; K(γE-x53) at 14; C-terminal NH2) [SEQ ID NO: 95], the “EC50 hGLP-1R (cAMP)” value amounted to 20.6 pM.

On to HXQGTFTSDLSKQKDSQAAQDFIEWLKRGGPSSGAPPPS (dSer at 2; K(γE-x53) at 14; C-terminal NH2) [SEQ ID NO: 123], for which the “EC50 hGLP-1R (cAMP)” value was found to be 2.6 pM.

For HXQGTFTSDLSKQKDSRRAXDFIEWLKNGGPSSGAPPPS (dSer at 2; K(γE-x53) at 14; Aib at 20; C-terminal NH2) [SEQ ID NO: 118], the “EC50 hGLP-1R (cAMP)” value amounted to 15.3 pM.

HXQGTFTSDLSKQKESRRAQDFIEWLKRGGPSSGAPPPS (dSer at 2; K(γE-x53) at 14; C-terminal NH2) [SEQ ID NO: 127]: the “EC50 hGLP-1R (cAMP)” value amounted to 14.7 pM.

Take HXQGTFTSDLSKQKESRRAQDFIEWLKSGGPSSGAPPPS (dSer at 2; K(γE-x53) at 14; C-terminal NH2) [SEQ ID NO: 129]: the “EC50 hGLP-1R (cAMP)” value came to 14.8 pM.

In the case of HXQGTFTSDLSKQKDSRRAQDFIEWLKNGGPSSGAPPPS (dSer at 2; K(γE-x53) at 14; C-terminal NH[(CH2)12-OH]) [SEQ ID NO: 107], the “EC50 hGLP-1R (cAMP)” value amounted to 188 pM.

As to HXQGTFTSDLSKQKDSRRAQDFIEWLKNTGPSSGAPPPS (dSer at 2; K(γE-x53) at 14; C-terminal NH2) [SEQ ID NO: 92], the “EC50 hGLP-1R (cAMP)” value was determined as 26 pM.

In the case of HXQGTFTSDLSKQKDSRRAQDFIEWLKNGGPSSGAPPPS (dSer at 2; K(γE-x53) at 14; C-terminal NH[(CH2)17-CH3]) [SEQ ID NO: 109], the “EC50 hGLP-1R (cAMP)” value amounted to 430 pM.

Regarding HXQGTFTSDLSKQKDSRRAQDFIEWLKNGGPSSGAPPPS (dSer at 2; K(γE-x53) at 14; C-terminal NH[(CH2)13-CH3]) [SEQ ID NO: 110], the “EC50 hGLP-1R (cAMP)” value turned out to be 213 pM.

In the case of HXQGTFTSDLSKQKESLAAQDFIEWLKAGGPSSGAPPPS (dSer at 2; K(γE-x53) at 14; C-terminal NH2) [SEQ ID NO: 150], the “EC50 hGLP-1R (cAMP)” value amounted to 6 pM.

Turning to H[Aib]QGTFTSDLSKQK([γGlu-x53])ES[Aib]AAQDFIEWLKAGGPSSGAPPPS-NH2 (reading uncertain) [SEQ ID NO: 13], the “EC50 hGLP-1R (cAMP)” value was 3.1 pM.

With HXHGTFTSDLSKQKDSKAAQLFIEWLKAXGPSSGAPPPS (dSer at 2; K(γE-X70) at 14; dAla at 29; C-terminal NH2) [SEQ ID NO: 138], the “EC50 hGLP-1R (cAMP)” value was 5.5 pM.

Another test deals with human glucagon receptor (human, UniProt P47871 26-477). Nature of the test: cell-based or functional assay.
Chain of human glucagon receptor (P47871 26-477): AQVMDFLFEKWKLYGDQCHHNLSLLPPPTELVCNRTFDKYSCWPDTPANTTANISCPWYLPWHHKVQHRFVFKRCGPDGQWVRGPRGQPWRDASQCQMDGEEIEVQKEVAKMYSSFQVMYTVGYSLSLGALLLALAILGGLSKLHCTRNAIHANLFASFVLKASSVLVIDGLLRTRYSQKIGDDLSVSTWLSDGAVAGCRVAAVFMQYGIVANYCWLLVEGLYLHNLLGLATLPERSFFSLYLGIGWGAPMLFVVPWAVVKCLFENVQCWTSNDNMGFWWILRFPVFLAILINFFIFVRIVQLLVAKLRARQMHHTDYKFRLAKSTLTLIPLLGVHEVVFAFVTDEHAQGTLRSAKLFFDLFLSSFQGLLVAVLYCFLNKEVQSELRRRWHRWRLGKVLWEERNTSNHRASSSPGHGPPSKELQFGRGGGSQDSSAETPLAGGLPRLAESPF
HXQGTFTSDLSKQKDSRRAQDFIEWLKNGGPSSGAPPPS (dSer at 2; K(γE-x53) at 14; C-terminal NH(pyrrolidin)) [SEQ ID NO: 98]: the “EC50 hGlucagon-R (cAMP)” value was found to be 1.4 pM.

For the molecule HXQGTFTSDLSKQKDSRRAQDFIEWLKNGGPSSGAPPPS (dSer at 2; K(γE-x53) at 14; C-terminal NH(CH2-CF3)) [SEQ ID NO: 103], the “EC50 hGlucagon-R (cAMP)” value was found to be 1.7 pM.

On to HXQGTFTSDLSKQKESXAAQDFIEWLKAGGPSSGAPPPS (dSer at 2; K(γE-x70) at 14; Aib at 17; C-terminal NH2) [SEQ ID NO: 11], for which the “EC50 hGlucagon-R (cAMP)” value stood at 25.7 pM.

In the case of HXQGTFTSDLSKQKDSRRAQDFIEWLKNGGPSSGAPPPS (dSer at 2; K(γE-x53) at 14; C-terminal NH(benzyl)) [SEQ ID NO: 99], the “EC50 hGlucagon-R (cAMP)” value worked out at 2.6 pM.

With HXQGTFTSDLSKQKDSRRAQDFIEWLKNGGPSSGAPPPS (dSer at 2; K(γE-x53) at 14; C-terminal NH[(CH2)15-CH3]) [SEQ ID NO: 106], the “EC50 hGlucagon-R (cAMP)” value was 10.5 pM.

For the molecule HXQGTFTSDLSKQKDSRRAQDFIEWLKNXGPSSGAPPPS (dSer at 2; K(γE-x53) at 14; dAla at 29; C-terminal NH2) [SEQ ID NO: 94], the “EC50 hGlucagon-R (cAMP)” value is 2.1 pM.

Regarding HXQGTFTSDLSKQKDSRRAQDFIEWLKNGGPSSGAPPPS (dSer at 2; K(γE-x53) at 14; C-terminal NH(tert.butyl)) [SEQ ID NO: 100], the “EC50 hGlucagon-R (cAMP)” value was 2 pM.

For HXQGTFTSDLSKQKDSRRAQDFIEWLKNGGPSSGAPPPS (dSer at 2; K(γE-x53) at 14; C-terminal NH[(CH2)14-CH3]) [SEQ ID NO: 108], the “EC50 hGlucagon-R (cAMP)” value is 9 pM.

Turning to HXQGTFTSDLSKQKESRRAQDFIEWLKNTGPSSGAPPPS (dSer at 2; K(γE-x53) at 14; C-terminal NH2) [SEQ ID NO: 96], the “EC50 hGlucagon-R (cAMP)” value came out at 3.4 pM.

As for HXQGTFTSDLSKQKDSRRAQDFIEWLKNGGPSSGAPPPS (dSer at 2; K(γE-x53) at 14; C-terminal NH[(CH2-CH2-O)4-CH2-CH2-COOH]) [SEQ ID NO: 104], the “EC50 hGlucagon-R (cAMP)” value was 1.1 pM.

With HXQGTFTSDLSKQKESRRAQDFIEWLKNAGPSSGAPPPS (dSer at 2; K(γE-x53) at 14; C-terminal NH2) [SEQ ID NO: 95], the “EC50 hGlucagon-R (cAMP)” value stood at 9.2 pM.

Regarding HXQGTFTSDLSKQKDSQAAQDFIEWLKRGGPSSGAPPPS (dSer at 2; K(γE-x53) at 14; C-terminal NH2) [SEQ ID NO: 123], the “EC50 hGlucagon-R (cAMP)” value came to 9.7 pM.

As for HXQGTFTSDLSKQKDSRRAXDFIEWLKNGGPSSGAPPPS (dSer at 2; K(γE-x53) at 14; Aib at 20; C-terminal NH2) [SEQ ID NO: 118], the “EC50 hGlucagon-R (cAMP)” value came to 4.3 pM.

In the case of HXQGTFTSDLSKQKESRRAQDFIEWLKRGGPSSGAPPPS (dSer at 2; K(γE-x53) at 14; C-terminal NH2) [SEQ ID NO: 127], the “EC50 hGlucagon-R (cAMP)” value is 9.4 pM.

On to HXQGTFTSDLSKQKESRRAQDFIEWLKSGGPSSGAPPPS (dSer at 2; K(γE-x53) at 14; C-terminal NH2) [SEQ ID NO: 129], for which the “EC50 hGlucagon-R (cAMP)” value was found to be 4.1 pM.

For the molecule HXQGTFTSDLSKQKDSRRAQDFIEWLKNGGPSSGAPPPS (dSer at 2; K(γE-x53) at 14; C-terminal NH[(CH2)12-OH]) [SEQ ID NO: 107], the “EC50 hGlucagon-R (cAMP)” value turned out to be 37.8 pM.

As for HXQGTFTSDLSKQKDSRRAQDFIEWLKNTGPSSGAPPPS (dSer at 2; K(γE-x53) at 14; C-terminal NH2) [SEQ ID NO: 92], the “EC50 hGlucagon-R (cAMP)” value turned out to be 1 pM.

As for HXQGTFTSDLSKQKDSRRAQDFIEWLKNGGPSSGAPPPS (dSer at 2; K(γE-x53) at 14; C-terminal NH[(CH2)17-CH3]) [SEQ ID NO: 109], the “EC50 hGlucagon-R (cAMP)” value was 28.6 pM.

As to HXQGTFTSDLSKQKDSRRAQDFIEWLKNGGPSSGAPPPS (dSer at 2; K(γE-x53) at 14; C-terminal NH[(CH2)13-CH3]) [SEQ ID NO: 110], the “EC50 hGlucagon-R (cAMP)” value was determined as 7.2 pM.

HXQGTFTSDLSKQKESLAAQDFIEWLKAGGPSSGAPPPS (dSer at 2; K(γE-x53) at 14; C-terminal NH2) [SEQ ID NO: 150]: the “EC50 hGlucagon-R (cAMP)” value was determined as 35.5 pM.

Consider H[Aib]QGTFTSDLSKQK([γGlu-x53])ES[Aib]AAQDFIEWLKAGGPSSGAPPPS-NH2 (reading uncertain) [SEQ ID NO: 13], for which the “EC50 hGlucagon-R (cAMP)” value worked out at 281 pM.

HXHGTFTSDLSKQKDSKAAQLFIEWLKAXGPSSGAPPPS (dSer at 2; K(γE-X70) at 14; dAla at 29; C-terminal NH2) [SEQ ID NO: 138]: the “EC50 hGlucagon-R (cAMP)” value is 9.2 pM.
